Measured values as given in patent publication US11123413B2, “Carbapenemases for use with antibiotics for the protection of the intestinal microbiome” (priority 2015, dated 2021).
“And” between values parts separate entries of the source, which are not always exact repeats. Equal entries are not always repeated. “Also recorded” adds a separate entry of the source.

What was measured:
[1] = CENTA chromogenic beta-lactamase biological activity assay (P3A standard curve); format: biochemical; details: for stability of enzyme activity in cell lysates under differing storage conditions: fresh, frozen (−80° C.) or overnight at 4° C. lysate; for relative potency for CENTA degradation: midpoint of sigmoid curve, protein concentration vs OD405, P3A=1.0; for β-Lactamase: purified carbapenemase, P3A standard
Protocol: Biological activity of the carbapenemases, P2A, NDM, and KPC, present in the E. coli cell lysates were evaluated in a microtiter plate assay using CENTA as the chromogenic substrate (Bebrone et al. Antimicrob. Agents Chemother (2001) 45:1868-1871; van Berkel et al., J. Med. Chem. (2013) 56:6945-6953). Briefly, the assay was performed in a 50 mM NaH2PO4 buffer, pH 7.0 with supplementation of 100 uM ZnSO4, with CENTA (Calbiochem Cat #219475) at 50 ug/ml. The assays were run using purified P3A protein for the standard curve at protein concentrations of 0 ng/ml, 3 ng/ml, 6 ng/ml, 8 ng/ml, 10 ng/ml, 15 ng/ml, 20 ng/ml and 40 ng·ml. The plates were read at 405 nm after a 30 minute incubation using a microtiter plate reader. Cell lysates from the bacterial strains showing the highest protein expression levels by SDS-PAGE were evaluated for biological activity, which included P2A strains 5, 15, 20, 21, and 23, NDM strains 53, 58, 63, 68, and 69, and KPC strains 94, 96, 99, 100, 101, 102, 103, and 104 (Table 11). In addition, fresh lysate, frozen (−80° C.) lysate, or lysate stored overnight at 4° C. from strain P2A-21 were compared, and fresh and frozen (−80° C.) lysates from strain NDM-63 were compared to assess the stability of enzyme activity under differing storage conditions. All other lysates were kept frozen at −80° C. until assayed (Table 11).
Bacterial lysates were analyzed for protein expression by SDS-PAGE. Strong NDM expression was detected in all strains with good reproducibility between shake flasks (FIG. 4). Strong expression of P2A and KPC was also detected with good reproducibility between shake flasks (FIG. 5). In all cases, the vast majority of the protein was detected in the soluble fractions (FIG. 4 and FIG. 5). Biological activity was assessed in the cell lysates using the CENTA assay as described with P3A as the standard. […] The highest biological activity for NDM was from strain NDM-68.
Aliquots of bacteria were collected early in the fermentation cycle, 16 hours, for P2A and NDM, and 32 hours for KPC, prior to enzyme expression induction, and late in the cycle (48 hours) and subjected to SDS-PAGE (FIG. 6 and FIG. 7) and biological activity analyses (Table 15). […] Fermenters A, B, and C, reached high ODs. […] Bioreactor expression is achieved by changing of growth conditions, lowering phosphate conditions, and/or changing the promoter.
Frozen cell pellets retained from the fermenter studies, Fermenter A, P2A, Fermenter B, NDM, or from the shake flask studies, shake flask A, KPC, were lysed at 3×7000 psi in a Panda table top cell homogenizer. The lysate was spun at 45000 g for 1 hour, supernatants collected and pH adjusted to 5.5 with 1 M MES. The supernatants were spun at 45000 g for 30 minutes, to remove precipitated debris and filtered through a 0.45 um filter. The filtered supernatants were subjected to cation-exchange chromatography using an SP-sepharose column. NDM was subjected to an additional purification step using a hydrophobic column, phenyl sepharose. The fractions containing the peak levels of protein were concentrated and dialyzed against a 20 mM HEPES, pH 7.5, 150 mM NaCl buffer. The P2A and NDM samples were supplemented with 100 uM ZnSO4 in all steps of the purification process. Purified enzymes yields were calculated to be approximately 600 mg of protein per liter. Purified proteins were analyzed by SDS-PAGE (FIG. 8) and for biological activity (Table 16).
As different beta-lactamase enzymes display differential affinity and kinetics with diverse substrates, including antibiotics and the CENTA reagent, it was possible to determine the relative specific activities of P2A, NDM, and KPC compared to P3A for CENTA as a substrate now that purified proteins were available and therefore, protein concentrations were known. […]

[2] = system: E. coli (ATCC 25922); assay: Antibiotic inactivation screening assay via E. coli growth (96 well plate, OD625); format: cell-based; details: for activity against cephalosporins and carbapenems / antibiotic degradation profile compared with P3A: 10, 100 or 1000 ng/ml enzyme; for inhibition by beta-lactamase inhibitors: SAM, TZP, CAZ/AVI combinations; for degradation of carbapenems: meropenem, imipenem, ertapenem, doripenem
Protocol: To mimic the activity of the carbapenemase enzymes, P2A, NDM, and KPC in the gut in the presence of high antibiotic concentrations, a novel screening assay was performed using a 96 well plate format. The assay was performed by mixing 10, 100 or 1000 μg/ml of the antibiotics, AMP: ampicillin, SAM: ampicillin/sulbactam, PIP: pipercillin, TZP: pipercillin/taxobactam, CRO: ceftriaxone, CTX: cefotaxime, CFZ: cefozolin, CXM: cefuroxime, CFP: cefoperazone, FEP: cefepime, CAZ: ceftazidime, MEM: meropenem, IPM: imipenem, ERT: ertapenem, DOR: doripenem, ATM: aztreonam, CDR: cefdinir; LEX: cephalexin; and CAZ/AVI: […]/avibactam with purified P2A, NDM, KPC, and P3A at concentrations of 10, 100, or 1000 ng/ml in each well of a 96 well microtiter plate. E. coli (ATCC 25922) was added immediately after the addition of the beta-lactamase enzymes, and the plates were incubated overnight. Bacterial growth was quantified by measuring the absorbance at 625 nm (OD625) in a Spectramax 384 Plus plate reader. The analysis was performed twice for each antibiotic. The beta-lactamase activity was determined as positive or negative based on the appearance of bacterial growth in the individual wells. An OD625 of 1.0 or greater indicated maximal bacterial growth, therefore complete antibiotic degradation and beta-lactamase activity. […] FIGS. 21A, 21B, and 21C display the comparison of the four beta-lactamases, P3A (SYN-004), P2A, NDM, and KPC with all 16 antibiotics at beta-lactamase concentrations of 10, 100, or 1000 ng/ml. […]

[3] = Oral P2A and intravenous meropenem in jejunal-fistulated dogs; format: in vivo, laboratory beagles
Protocol: The ability of P2A to degrade meropenem in the dog intestinal tract was evaluated using laboratory beagles that had permanent jejunal fistulas. The fistulas allowed the repeated collection of jejunal chyme specimens from these animals. Dogs were treated with peroral P2A (1 mg/kg) in a liquid formulation (PBS buffer), and/or intravenous meropenem (30 mg/kg). Serum samples were collected and serum meropenem levels quantified. Jejunal chyme samples were collected and meropenem and P2A levels were quantified. Meropenem levels in serum and chyme were measured using a plate diffusion method using meropenem susceptible Micrococcus luteus TS504 as the test strain. P2A activity levels in chyme were determined spectrophotometrically using meropenem as a substrate. Meropenem hydrolysis was monitored at a wavelength of 297 nm.

[4] = fermenter cell lysate, 16 hr, Bioreactor A or B (standard phosphate)
[5] = fermenter cell lysate, 48 hr, Bioreactor A, B or D (standard phosphate)
[6] = peak level in dog jejunum, meropenem 30 mg/kg IV + P2A 1 mg/kg PO, individual dogs
[7] = peroral P2A 1 mg/kg, intravenous meropenem 30 mg/kg

| Molecule | Activity [1, 4] [mg/L] | Activity ([1]; fermenter cell lysate, 16 hr, Bioreactor C (extra zinc and extra phosphate)) [mg/L] | Activity [1, 5] [mg/L] | Activity ([1]; fermenter cell lysate, 48 hr, Bioreactor C (extra zinc and extra phosphate)) [mg/L] | stability of enzyme activity in cell lysates under differing storage conditions [1] | relative potency for CENTA degradation [1] | β-Lactamase ([1]; CENTA) [mg/L] | activity against cephalosporins and carbapenems [2] | antibiotic degradation profile compared with P3A [2] | inhibition by beta-lactamase inhibitors [2] | degradation of carbapenems [2] | Activity ([1]; bacterial cell lysate, shake flask culture, Flask A, CENTA, P3A as the standard) [mg/L] | Activity ([1]; bacterial cell lysate, shake flask culture, Flask B, CENTA, P3A as the standard) [mg/L] | activity against cefepime and ceftazidime compared to NDM [2] | jejunal P2A concentration at which meropenem was not detected ([3]; intestinal samples, dogs) | Meropenem [3, 6] | P2A (U/g) [3, 6] | effect on serum levels of meropenem [3, 7] | meropenem in jejunal chyme [3, 7] |
| --- | --- | --- | --- | --- | --- | --- | --- | --- | --- | --- | --- | --- | --- | --- | --- | --- | --- | --- | --- |
| NDM: New Delhi metallo-β-lactamase NDM-1; NDM-68 = product of strain STY-NP1602-68 (STII Δ35, N-terminal GQQMETG) (protein) GQQMETGDQRFGDLVFRQLAPNVWQHTSYLDMPGFGAVASNGLIVRDGGRVLVVDTAWTDDQTAQILNWIKQEINLPVALAVVTHAHQDKMGGMDALHAAGIATYANALSNQLAPQEGMVAAQHSLTFAANGWVEPATAPNFGPLKVFYPGPGHTSDNITVGIDGTDIAFGGCLIKDSKAKSLGNLGDADTEHYAASARAFGAAFPKASMIVMSHSAPDSRAAITHTARMADKLR | 6.6 | 5.8 | 520.0 | 14.1 | No difference in activity | 0.71 | 1703.8 | efficiently degraded all tested cephalosporins and carbapenems | broader degradation profile than P3A | resistant to inhibition by sulbactam, tazobactum, and avibactam; also recorded: least affected by sulbactam | efficiently degraded meropenem, imipenem, ertapenem, and doripenem | – | – | – | – | – | – | – | – |
| P2A: broad spectrum carbapenemase, class B metallo-enzyme requiring zinc, SEQ ID NO: 37; P2A-21 = product of strain SYT-PP0602-21 (protein) ETGTISISQLNKNVWVHTELGYFNGEAVPSNGLVLNTSKGLVLVDSSWDNKLTKELIEMVEKKFQKRVTDVIITHAHADRIGGITALKERGIKAHSTALTAELAKNSGYEEPLGDLQTITSLKFGNTKVETFYPGKGHTEDNIVVWLPQYQILAGGCLVKSAEAKDLGNVADAYVNEWSTSIENVLKRYGNINSVVPGHGEVGDKGLLLHTLDLLK | 3.2 | – | 59.7 | – | No difference in activity | 0.12 | 317.7 | good activity against all carbapenems and most cephalosporins | broader degradation profile than P3A | resistant to inhibition by sulbactam, tazobactum, and avibactam | efficiently degraded meropenem, imipenem, ertapenem, and doripenem | 19.6 | 17.0 | activity was reduced against the cephalosporins, cefepime and ceftazidime | at least 0.5 U/g | 0 ug/ml (2×) and 2.0 ug/ml | 0.5 U/g and 0.2 U/g and 80 U/g | does not reduce serum levels of meropenem | degraded meropenem |
